The source of these data is US20120034160A1 (AbbVie / Abbott, published 2012).

Numbering of substitutions follows the chain as printed. Some results are limits rather than exact numbers.

One assay deals with T1, Recombinant Human IL-17 (human, UniProt Q16552 20-155, limits assumed).
T1 construct: bought reagent
T1 sequence (looked up): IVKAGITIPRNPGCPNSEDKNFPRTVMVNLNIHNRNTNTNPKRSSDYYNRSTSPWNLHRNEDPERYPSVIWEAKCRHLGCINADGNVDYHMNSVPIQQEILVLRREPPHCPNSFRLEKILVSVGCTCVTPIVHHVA
Kind of assay: Biacore SPR; N-terminal VD. As for the experimental part: (§1) The BIACORE assay (Biacore, Inc, Piscataway, N.J.) determines the affinity of antibodies or DVD-Ig with kinetic measurements of on-rate and off-rate constants. Binding of antibodies or DVD-Ig to a target antigen (for example, a purified recombinant target antigen) was determined by surface plasmon resonance-based measurements with a Biacore® 1000 or 3000 instrument (Biacore® AB, Uppsala, Sweden) using running HBS-EP (10 mM HEPES [pH 7.4], 150 mM NaCl, 3 mM EDTA, and 0.005% surfactant P20) at 25° C. All chemicals were obtained from Biacore® AB (Uppsala, Sweden) or otherwise from a different source as described in the text. For example, approximately 5000 RU of goat anti-mouse IgG, (Fcγ), fragment specific polyclonal antibody (Pierce Biotechnology Inc, Rockford, Ill.) diluted in 10 mM sodium acetate (pH 4.5) was directly immobilized across a CM5 research grade biosensor chip using a standard amine coupling kit according to manufacturer's instructions and procedures at 25 μg/ml. Unreacted moieties on the biosensor surface were blocked with ethanolamine. Modified carboxymethyl dextran surface in flowcell 2 and 4 was used as a reaction surface. Unmodified carboxymethyl dextran without goat anti-mouse IgG in flow cell 1 and 3 was used as the reference surface. For kinetic analysis, rate equations derived from the 1:1 Langmuir binding model were fitted simultaneously to association and dissociation phases of all eight injections (using global fit analysis) with the use of Biaevaluation 4.0.1 software. Purified antibodies or DVD-Ig were diluted in HEPES-buffered saline for capture across goat anti-mouse IgG specific reaction surfaces. Antibodies or DVD-Ig to be captured as a ligand (25 μg/ml) were injected over reaction matrices at a flow rate of 5 μl/min. The association and dissociation rate constants, kₒₙ (M⁻¹s⁻¹) and koff (s⁻¹) were determined under a continuous flow rate of 25 μl/min. Rate constants were derived by making kinetic binding measurements at different antigen concentrations ranging from 10−200 nM. The equilibrium dissociation constant (M) of the reaction between antibodies or DVD-Igs and the target antigen was then calculated from the kinetic rate constants by the following formula: KD=koff/kₒₙ. Binding was recorded as a function of time and kinetic rate constants are calculated.
Background: SPR reads the build-up and loss of mass on a sensor chip optically.

A further assay has as its target T2, Recombinant Human IL-1β (human, UniProt P01584 117-269).
T2 construct: bought reagent; also called IL-1B
Kind of assay: Biacore SPR; C-terminal VD. As for the experimental part:
as §1

B1: DVD1289 (bispecific antibody, human IgG1, kappa)
heavy: not shown
light: EIVLTQSPDFQSVTPKEKVTITCRASQNIGSELHWYQQKPDQSPKLLIKYASHSISGVPSRFSGSGSGTDFTLTINGLEAEDAATYYCHQSDTLPHTFGQGTKVDIKRTVAAPDTVVTQSPAFLSVTPGEKVTITCITSTDIDVDMNWYQQKPDQPPKLLISQGNTLRPGVPSRFSSSGSGTDFTFTISSLEAEDAATYYCLQSDNLPLTFGQGTKLEIKRTVAAPSVFIFPPSDEQLKSGTASVVCLLNNFYPREAKVQWKVDNALQSGNSQESVTEQDSKDSTYSLSSTLTLSKADYEKHKVYACEVTHQGLSSPVTKSFNRGEC
notes: DVD-Ig, outer AB275, inner AB271, linker set 1; V1 wt hIgG1, V2 kappa; also called DVD1289H; DVD1289L
Broadly, the Kd is the equilibrium constant for the complex coming apart. For orientation: koff means a measure of how fast the partners let go of each other. In general, kon refers to a measure of how fast the partners come together. B1: in the assay with Recombinant Human IL-17, the Kd was found to be 0.4 nM, the koff was found to be 5.6e-05 s⁻¹ and the kon amounted to 140000 M⁻¹ s⁻¹. For the same molecule, in the assay with Recombinant Human IL-1β, the Kd was found to be 1.3 nM, the koff came to 0.00048 s⁻¹ and the kon was 370000 M⁻¹ s⁻¹.

B2: DVD1604 (bispecific antibody, human IgG1, kappa)
heavy: not shown
light: EIVLTQSPDFQSVTPKEKVTITCRASQDIGSELHWYQQKPDQPPKLLIKYASHSTSGVPSRFSGSGSGTDFTLTINGLEAEDAGTYYCHQTDSLPYTFGPGTKVDIKRTVAAPSVFIFPPDTQVTQSPSSLSASVGDRVTITCITSTDIDVDMNWYQQKPGKPPKLLISQGNTLRPGVPSRFSSSGSGTDFTFTISSLQPEDFATYYCLQSDNLPLTFGQGTKLEIKRTVAAPSVFIFPPSDEQLKSGTASVVCLLNNFYPREAKVQWKVDNALQSGNSQESVTEQDSKDSTYSLSSTLTLSKADYEKHKVYACEVTHQGLSSPVTKSFNRGEC
notes: DVD-Ig, outer AB274, inner AB270, linker set 2; V1 wt hIgG1, V2 kappa; also called DVD1604H; DVD1604L
B2: in the assay with Recombinant Human IL-17, the Kd is 0.0026 nM, the koff amounted to 9.7e-06 s⁻¹ and the kon amounted to 3.8e+06 M⁻¹ s⁻¹. Also, in the assay with Recombinant Human IL-1β, the Kd was found to be 0.29 nM, the koff was 0.00037 s⁻¹ and the kon worked out at 1.3e+06 M⁻¹ s⁻¹.

B3: DVD1594 (bispecific antibody, human IgG1, kappa)
heavy: not shown
light: DIQMTQSPSSLSASVGDRVTITCRASSGIISYIDWFQQKPGKAPKRLIYATFDLASGVPSRFSGSGSGTDYTLTISSLQPEDFATYYCRQVGSYPETFGQGTKLEIKRTVAAPSVFIFPPDTQVTQSPSSLSASVGDRVTITCITSTDIDVDMNWYQQKPGKPPKLLISQGNTLRPGVPSRFSSSGSGTDFTFTISSLQPEDFATYYCLQSDNLPLTFGQGTKLEIKRTVAAPSVFIFPPSDEQLKSGTASVVCLLNNFYPREAKVQWKVDNALQSGNSQESVTEQDSKDSTYSLSSTLTLSKADYEKHKVYACEVTHQGLSSPVTKSFNRGEC
notes: DVD-Ig, outer AB273, inner AB270, linker set 2; V1 wt hIgG1, V2 kappa; also called DVD1594H; DVD1594L
B3: in the assay with Recombinant Human IL-17, the Kd is 0.0056 nM, the koff is 2.3e-05 s⁻¹ and the kon came out at 4.2e+06 M⁻¹ s⁻¹. Moreover, in the assay with Recombinant Human IL-1β, the Kd stood at 0.6 nM, the koff amounted to 0.00043 s⁻¹ and the kon was 710000 M⁻¹ s⁻¹.

B4: DVD1598 (bispecific antibody, human IgG1, kappa)
heavy: not shown
light: B3 light with D121E, Q123T
notes: DVD-Ig, outer AB273, inner AB272, linker set 2; V1 wt hIgG1, V2 kappa; also called DVD1598H; DVD1598L
For B4, in the assay with Recombinant Human IL-17, the Kd stood at 0.0051 nM, the koff stood at 1.8e-05 s⁻¹ and the kon was 3.5e+06 M⁻¹ s⁻¹. Moreover, in the assay with Recombinant Human IL-1β, the Kd came to 1.2 nM, the koff stood at 0.00074 s⁻¹ and the kon is 630000 M⁻¹ s⁻¹.

B5: DVD1596 (bispecific antibody, human IgG1, kappa)
heavy: not shown
light: DIQMTQSPSSLSASVGDRVTITCRASSGIISYIDWFQQKPGKAPKRLIYATFDLASGVPSRFSGSGSGTDYTLTISSLQPEDFATYYCRQVGSYPETFGQGTKLEIKRTVAAPSVFIFPPDTVVTQSPAFLSVTPGEKVTITCITSTDIDVDMNWYQQKPDQPPKLLISQGNTLRPGVPSRFSSSGSGTDFTFTISSLEAEDAATYYCLQSDNLPLTFGQGTKLEIKRTVAAPSVFIFPPSDEQLKSGTASVVCLLNNFYPREAKVQWKVDNALQSGNSQESVTEQDSKDSTYSLSSTLTLSKADYEKHKVYACEVTHQGLSSPVTKSFNRGEC
notes: DVD-Ig, outer AB273, inner AB271, linker set 2; V1 wt hIgG1, V2 kappa; also called DVD1596H; DVD1596L
In the case of B5, in the assay with Recombinant Human IL-17, the Kd stood at 0.0033 nM, the koff worked out at 1.3e-05 s⁻¹ and the kon was 4.1e+06 M⁻¹ s⁻¹. In the assay with Recombinant Human IL-1β, the Kd was determined as 0.51 nM, the koff was 0.00036 s⁻¹ and the kon was found to be 700000 M⁻¹ s⁻¹.

B6: DVD1287 (bispecific antibody, human IgG1, kappa)
heavy: not shown
light: EIVLTQSPDFQSVTPKEKVTITCRASQNIGSELHWYQQKPDQSPKLLIKYASHSISGVPSRFSGSGSGTDFTLTINGLEAEDAATYYCHQSDTLPHTFGQGTKVDIKRTVAAPDTQVTQSPSSLSASVGDRVTITCITSTDIDVDMNWYQQKPGKPPKLLISQGNTLRPGVPSRFSSSGSGTDFTFTISSLQPEDFATYYCLQSDNLPLTFGQGTKLEIKRTVAAPSVFIFPPSDEQLKSGTASVVCLLNNFYPREAKVQWKVDNALQSGNSQESVTEQDSKDSTYSLSSTLTLSKADYEKHKVYACEVTHQGLSSPVTKSFNRGEC
notes: DVD-Ig, outer AB275, inner AB270, linker set 1; V1 wt hIgG1, V2 kappa; also called DVD1287H; DVD1287L
For the molecule B6, in the assay with Recombinant Human IL-17, the equilibrium dissociation constant (Kd) was 0.3 nM, the koff amounted to 4.7e-05 s⁻¹ and the kon amounted to 160000 M⁻¹ s⁻¹. Further, in the assay with Recombinant Human IL-1β, the Kd was determined as 1.2 nM, the koff was found to be 0.00037 s⁻¹ and the kon is 310000 M⁻¹ s⁻¹.

B7: DVD1291 (bispecific antibody, human IgG1, kappa)
heavy: not shown
light: B6 light with D114E, Q116T
notes: DVD-Ig, outer AB275, inner AB272, linker set 1; V1 wt hIgG1, V2 kappa; also called DVD1291H; DVD1291L
With B7, in the assay with Recombinant Human IL-17, the Kd stood at 0.048 nM, the koff amounted to 6e-07 s⁻¹ and the kon turned out to be 12000 M⁻¹ s⁻¹. Moreover, in the assay with Recombinant Human IL-1β, the Kd came to 2.8 nM, the koff is 0.00058 s⁻¹ and the kon is 210000 M⁻¹ s⁻¹.

B8: DVD1590 (bispecific antibody, human IgG1, kappa)
heavy: not shown
light: DIQMTQSPSSLSASVGDRVTITCRASSGIISYIDWFQQKPGKAPKRLIYATFDLASGVPSRFSGSGSGTDYTLTISSLQPEDFATYYCRQVGSYPETFGQGTKLEIKRTVAAPSVFIFPPDIQMTQSPSSLSASVGDRVTITCRASGNIHNYLTWYQQTPGKAPKLLIYNAKTLADGVPSRFSGSGSGTDYTFTISSLQPEDIATYYCQHFWSIPYTFGQGTKLQITRTVAAPSVFIFPPSDEQLKSGTASVVCLLNNFYPREAKVQWKVDNALQSGNSQESVTEQDSKDSTYSLSSTLTLSKADYEKHKVYACEVTHQGLSSPVTKSFNRGEC
notes: V1 wt hIgG1, V2 kappa; also called DVD1590H; DVD1590L
Take B8: in the assay with Recombinant Human IL-17, the Kd worked out at 0.0018 nM, the koff is 7e-06 s⁻¹ and the kon stood at 3.8e+06 M⁻¹ s⁻¹. Besides, in the assay with Recombinant Human IL-1β, the Kd came to 0.19 nM, the koff turned out to be 4.6e-05 s⁻¹ and the kon was found to be 250000 M⁻¹ s⁻¹.

B9: DVD1592 (bispecific antibody, human IgG1, kappa)
heavy: not shown
light: B8 light
notes: V1 wt hIgG1, V2 kappa; also called DVD1592H; DVD1592L
On to B9, for which, in the assay with Recombinant Human IL-17, the Kd was found to be 0.0064 nM, the koff amounted to 2e-05 s⁻¹ and the kon was 3.2e+06 M⁻¹ s⁻¹. Moreover, in the assay with Recombinant Human IL-1β, the dissociation constant (Kd) came out at 0.0072 nM, the koff is 4.9e-06 s⁻¹ and the kon came out at 690000 M⁻¹ s⁻¹.

B10: DVD1600 (bispecific antibody, human IgG1, kappa)
heavy: not shown
light: EIVLTQSPDFQSVTPKEKVTITCRASQDIGSELHWYQQKPDQPPKLLIKYASHSTSGVPSRFSGSGSGTDFTLTINGLEAEDAGTYYCHQTDSLPYTFGPGTKVDIKRTVAAPSVFIFPPDIQMTQSPSSLSASVGDRVTITCRASGNIHNYLTWYQQTPGKAPKLLIYNAKTLADGVPSRFSGSGSGTDYTFTISSLQPEDIATYYCQHFWSIPYTFGQGTKLQITRTVAAPSVFIFPPSDEQLKSGTASVVCLLNNFYPREAKVQWKVDNALQSGNSQESVTEQDSKDSTYSLSSTLTLSKADYEKHKVYACEVTHQGLSSPVTKSFNRGEC
notes: V1 wt hIgG1, V2 kappa; also called DVD1600H; DVD1600L
On to B10, for which, in the assay with Recombinant Human IL-17, the Kd was no more than 0.0038 nM, the koff is less than 1e-06 s⁻¹ and the kon turned out to be 2.8e+06 M⁻¹ s⁻¹. For the same molecule, in the assay with Recombinant Human IL-1β, the Kd came out at 0.55 nM, the koff was determined as 9.4e-05 s⁻¹ and the kon came out at 170000 M⁻¹ s⁻¹.

B11: DVD1602 (bispecific antibody, human IgG1, kappa)
heavy: not shown
light: B10 light
notes: V1 wt hIgG1, V2 kappa; also called DVD1602H; DVD1602L
Turning to B11, in the assay with Recombinant Human IL-17, the Kd amounted to 0.0051 nM, the koff worked out at 1.4e-05 s⁻¹ and the association rate constant (kon) amounted to 2.7e+06 M⁻¹ s⁻¹. Further, in the assay with Recombinant Human IL-1β, the Kd was 0.18 nM, the dissociation rate constant (koff) was 2.3e-05 s⁻¹ and the kon came to 130000 M⁻¹ s⁻¹.
